US20060134756A1 (ZymoGenetics, published 2006)

Biological target: T1, CRF2-4/IL-22RA heterodimeric receptor on BaF3 cells (BaF3/CRF2-4/IL-22RA cells) (human, UniProt Q08334 20-325, limits assumed)
T1 sequence 1: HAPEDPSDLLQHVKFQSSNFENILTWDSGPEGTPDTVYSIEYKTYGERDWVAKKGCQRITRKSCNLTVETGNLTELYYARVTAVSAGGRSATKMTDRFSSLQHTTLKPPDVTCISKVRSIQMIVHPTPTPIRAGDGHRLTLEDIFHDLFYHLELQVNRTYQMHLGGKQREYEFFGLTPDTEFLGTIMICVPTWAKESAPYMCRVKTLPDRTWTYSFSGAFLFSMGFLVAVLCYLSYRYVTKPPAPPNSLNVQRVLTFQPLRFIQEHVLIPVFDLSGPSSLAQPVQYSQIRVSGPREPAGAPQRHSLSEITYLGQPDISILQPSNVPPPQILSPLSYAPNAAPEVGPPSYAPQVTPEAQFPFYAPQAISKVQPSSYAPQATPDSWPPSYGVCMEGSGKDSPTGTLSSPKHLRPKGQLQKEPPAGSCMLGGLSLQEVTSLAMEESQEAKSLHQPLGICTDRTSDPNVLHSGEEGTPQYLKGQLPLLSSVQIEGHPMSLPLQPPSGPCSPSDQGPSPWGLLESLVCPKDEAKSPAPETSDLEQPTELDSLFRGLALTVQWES
T1 sequence 2: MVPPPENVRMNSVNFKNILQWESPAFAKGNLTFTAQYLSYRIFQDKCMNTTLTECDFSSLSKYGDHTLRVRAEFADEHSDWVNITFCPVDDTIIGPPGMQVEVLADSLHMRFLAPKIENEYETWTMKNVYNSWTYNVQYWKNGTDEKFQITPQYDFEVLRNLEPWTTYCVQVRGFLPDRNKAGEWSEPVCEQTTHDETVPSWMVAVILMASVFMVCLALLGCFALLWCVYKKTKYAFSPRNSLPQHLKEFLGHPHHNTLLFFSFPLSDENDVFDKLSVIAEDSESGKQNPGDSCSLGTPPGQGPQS
Test: cell-based or functional assay

- proliferation of BaF3/CRF2-4/IL-22RA cells (Alamar Blue), IL-22-CEE at 0.06 ng/ml: ~2 fold over background
B1: IL-22-CEE (ligand)
chain: LLLALLVQGGAAAPISSHCRLDKSNFQQPYITNRTFMLAKEASLADNNTDVRLIGEKLFHGVSMSERCYLMKQVLNFTLEEVLFPQSDRFQPYMQEVVPFLARLSNRLSTCHIEGDDLHIQRNVQKLKDTVKKLGESGEIKAIGELEYMPME
